{
  "source": "patent US20190092819A1",
  "about": "(published 2019)",
  "molecules": {"B1": {"name": "Ad3-S4/Kn (ligand, human adenovirus serotype 3, UniProt P04501 77-319, looked up)", "chain": "SLEENIKVNTPLTKSNHSINLPIGNGLQIEQNKLCSKLGNGLTFDSSNSIALKNNTLWTGPKPEANCIIEYGKQNPDSKLTLILVKNGGIVNGYVTLMGASDYVNTLFKNKNVSINVELYFDATGHILPDSSSLKTDLELKYKQTADFSARGFMPSTTAYPFVLPNAGTHNENYIFGQCYYKASDGALFPLEVTVMLNKRLPDSRTSYVMTFLWSLNAGLAPETTQATLITSPFTFSYIREDD", "notes": "domain: fiber knob with shaft motifs (S4)"}, "B2": {"name": "Ad3-S3/Kn (ligand, human adenovirus serotype 3, UniProt P04501 94-319, looked up)", "chain": "SINLPIGNGLQIEQNKLCSKLGNGLTFDSSNSIALKNNTLWTGPKPEANCIIEYGKQNPDSKLTLILVKNGGIVNGYVTLMGASDYVNTLFKNKNVSINVELYFDATGHILPDSSSLKTDLELKYKQTADFSARGFMPSTTAYPFVLPNAGTHNENYIFGQCYYKASDGALFPLEVTVMLNKRLPDSRTSYVMTFLWSLNAGLAPETTQATLITSPFTFSYIREDD", "notes": "domain: fiber knob with shaft motifs (S3)"}, "B3": {"name": "Ad3-S2/Kn (ligand, human adenovirus serotype 3, UniProt P04501 108-319, looked up)", "chain": "NKLCSKLGNGLTFDSSNSIALKNNTLWTGPKPEANCIIEYGKQNPDSKLTLILVKNGGIVNGYVTLMGASDYVNTLFKNKNVSINVELYFDATGHILPDSSSLKTDLELKYKQTADFSARGFMPSTTAYPFVLPNAGTHNENYIFGQCYYKASDGALFPLEVTVMLNKRLPDSRTSYVMTFLWSLNAGLAPETTQATLITSPFTFSYIREDD", "notes": "domain: fiber knob with shaft motifs (S2)"}, "B4": {"name": "Ad3-S5/Kn (ligand, human adenovirus serotype 3, UniProt P04501 60-319, looked up)", "chain": "SLQLKVGSGLTVDTTDGSLEENIKVNTPLTKSNHSINLPIGNGLQIEQNKLCSKLGNGLTFDSSNSIALKNNTLWTGPKPEANCIIEYGKQNPDSKLTLILVKNGGIVNGYVTLMGASDYVNTLFKNKNVSINVELYFDATGHILPDSSSLKTDLELKYKQTADFSARGFMPSTTAYPFVLPNAGTHNENYIFGQCYYKASDGALFPLEVTVMLNKRLPDSRTSYVMTFLWSLNAGLAPETTQATLITSPFTFSYIREDD", "notes": "domain: fiber knob with shaft motifs (S5)"}, "B5": {"name": "dimeric Ad3 fiber knob mutant D261N (ligand)", "chain": "MKVSALKEKVSALKEKVSALKEKVSALKEKVSALKEGSGGGSGGGSGGGSNSIALKNNTLWTGPKPEANCIIEYGKQNPDSKLTLILVKNGGIVNGYVTLMGASDYVNTLFKNKNVSINVELYFDATGHILPDSSSLKTDLELKYKQTADFSARGFMPSTTAYPFVLPNAGTHNENYIFGQCYYKASNGALFPLEVTVMLNKRLPDSRTSYVMTFLWSLNAGLAPETTQATLITSPFTFSYIREDD"}, "B6": {"name": "dimeric Ad3 fiber knob mutant N186D (ligand)", "chain": "B5 chain with N113D, N188D", "notes": "Self-dimerizing form (JO-1 format)"}, "B7": {"name": "dimeric Ad3 fiber knob mutant L296R (ligand)", "chain": "B5 chain with N188D, L223R", "notes": "JO-1 format"}, "B8": {"name": "dimeric Ad3 fiber knob mutant E299V (ligand)", "chain": "B5 chain with N188D, E226V", "notes": "JO-1 format"}, "B9": {"name": "dimeric Ad3 fiber knob mutant V189G (ligand)", "chain": "B5 chain with V116G, N188D", "notes": "JO-1 format"}, "B10": {"name": "dimeric Ad3 fiber knob mutant S190P (ligand)", "chain": "B5 chain with S117P, N188D", "notes": "JO-1 format; also called 5190P"}, "B11": {"name": "dimeric Ad3 fiber knob mutant F265L (ligand)", "chain": "B5 chain with N188D, F192L", "notes": "JO-1 format"}, "B12": {"name": "dimeric Ad3 fiber knob mutant N186D, D261N (ligand)", "chain": "B5 chain with N113D", "notes": "JO-1 format; Positions count on the full Ad3 fiber; also called combination of N186D and D261N"}, "B13": {"name": "dimeric Ad3 fiber knob mutant D261N, L296R (ligand)", "chain": "B5 chain with L223R", "notes": "JO-1 format; Positions count on the full Ad3 fiber; also called combination of D261N and L296R"}},
  "key": {"[1]": {"target": "Desmoglein 2 (DSG2) on cells (human) (UniProt Q14126)", "test": "cell-based or functional assay"}, "[2]": {"target": "Desmoglein 2 (DSG2) on cells (human) (UniProt Q14126)", "test": "competition: attachment of 3H-labelled Ad3 virus (competitor) to HeLa cells after pre-incubation with dimeric knob; scintillation counting"}, "[3]": {"target": "Recombinant human DSG2 protein (desmoglein 2), soluble (human) (UniProt Q14126)", "test": "method not named at this place; presumably the SPR of FIG. 7 (noDD forms)"}, "soluble CD46": {"target": "T1, soluble CD46 (UniProt P15529 35-343, limits assumed)", "T1 construct": "also called sCD46", "T1 sequence (looked up)": "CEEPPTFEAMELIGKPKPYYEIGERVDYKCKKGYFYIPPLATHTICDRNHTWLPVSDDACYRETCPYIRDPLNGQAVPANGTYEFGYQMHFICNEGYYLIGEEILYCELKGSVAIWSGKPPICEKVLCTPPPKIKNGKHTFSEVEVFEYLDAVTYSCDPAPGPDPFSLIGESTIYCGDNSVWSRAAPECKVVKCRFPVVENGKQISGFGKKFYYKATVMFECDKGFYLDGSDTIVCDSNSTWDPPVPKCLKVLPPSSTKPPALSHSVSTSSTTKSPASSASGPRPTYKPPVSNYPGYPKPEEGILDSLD", "test": "Western blot probed with soluble CD46 and anti-CD46 mAb"}, "[4]": {"target": "T2, Desmoglein 2 (DSG2) on cells (human, UniProt Q14126 50-1118)", "T2 sequence (looked up)": "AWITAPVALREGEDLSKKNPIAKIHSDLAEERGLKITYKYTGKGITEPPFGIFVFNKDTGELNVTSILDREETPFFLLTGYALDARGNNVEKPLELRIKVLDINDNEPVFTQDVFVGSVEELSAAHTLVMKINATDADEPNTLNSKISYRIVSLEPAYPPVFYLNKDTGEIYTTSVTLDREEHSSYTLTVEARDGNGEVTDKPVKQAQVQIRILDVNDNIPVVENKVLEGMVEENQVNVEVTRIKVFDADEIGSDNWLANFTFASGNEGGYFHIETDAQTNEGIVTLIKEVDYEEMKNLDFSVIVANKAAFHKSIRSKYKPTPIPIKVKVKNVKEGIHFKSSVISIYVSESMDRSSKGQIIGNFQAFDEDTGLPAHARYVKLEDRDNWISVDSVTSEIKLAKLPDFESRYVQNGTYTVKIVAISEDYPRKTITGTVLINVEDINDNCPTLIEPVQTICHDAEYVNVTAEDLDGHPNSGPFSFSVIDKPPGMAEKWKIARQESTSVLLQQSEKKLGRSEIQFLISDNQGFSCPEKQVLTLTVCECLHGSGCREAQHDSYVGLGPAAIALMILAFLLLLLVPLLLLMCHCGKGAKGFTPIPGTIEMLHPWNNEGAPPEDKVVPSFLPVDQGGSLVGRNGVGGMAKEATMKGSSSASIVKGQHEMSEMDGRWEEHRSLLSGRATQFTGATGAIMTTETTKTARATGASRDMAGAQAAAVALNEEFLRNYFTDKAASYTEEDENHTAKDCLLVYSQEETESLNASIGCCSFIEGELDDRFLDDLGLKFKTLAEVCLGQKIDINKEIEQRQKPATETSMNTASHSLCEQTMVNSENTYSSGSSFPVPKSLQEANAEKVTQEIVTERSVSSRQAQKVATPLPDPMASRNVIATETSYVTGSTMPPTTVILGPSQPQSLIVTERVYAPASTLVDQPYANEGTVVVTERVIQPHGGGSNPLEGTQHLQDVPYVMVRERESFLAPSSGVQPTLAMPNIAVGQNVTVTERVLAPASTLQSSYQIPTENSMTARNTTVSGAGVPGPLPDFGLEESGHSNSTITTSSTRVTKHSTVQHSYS", "test": "cell-based or functional assay"}, "[5]": {"target": "T2, Desmoglein 2 (DSG2) on cells", "test": "competition: attachment of 3H-labelled Ad3 virus (competitor) to HeLa cells after pre-incubation with dimeric knob; scintillation counting"}, "[6]": {"target": "Recombinant human DSG2 protein (desmoglein 2), soluble (human) (UniProt Q14126)", "test": "Western blot of purified dimeric knob (trimer band) probed with soluble recombinant DSG2, anti-DSG2 mAb and anti-mouse IgG-HRP; bands quantified"}},
  "note": "Residue numbers refer to the chain shown, from its start. Names may count otherwise.",
  "data": [
    {"molecule": "dimeric Ad3 fiber knob mutant N186D, D261N, L296R (ligand)", "values": [
      {"measurement": "Inhibition of infection in the presence of dimeric knob (JO-1 = 100%) (% (JO-1 = 100%))", "setting": "[1]", "result": 0},
      {"measurement": "Inhibition of attachment in the presence of dimeric knob (JO-1 = 100%) (% (JO-1 = 100%))", "setting": "[2]", "result": 18.5}
    ]},
    {"molecule": "JO-4 (dimeric affinity-enhanced Ad3 fiber knob mutant Y250F) (ligand)", "values": [
      {"measurement": "Kd", "setting": "[3]", "result": 11.4, "unit": "nM"}
    ]},
    {"molecule": "B1", "values": [
      {"measurement": "binding result", "setting": "soluble CD46", "result": "no binding"}
    ]},
    {"molecule": "B2", "values": [
      {"measurement": "binding result", "setting": "soluble CD46", "result": "no binding"}
    ]},
    {"molecule": "B3", "values": [
      {"measurement": "binding result", "setting": "soluble CD46", "result": "no binding"}
    ]},
    {"molecule": "B4", "values": [
      {"measurement": "binding result", "setting": "soluble CD46", "result": "no binding"}
    ]},
    {"molecule": "B5", "values": [
      {"measurement": "Inhibition of infection in the presence of dimeric knob (JO-1 = 100%) (% (JO-1 = 100%))", "setting": "[1]", "result": 5.3},
      {"measurement": "Inhibition of attachment in the presence of dimeric knob (JO-1 = 100%) (% (JO-1 = 100%))", "setting": "[2]", "result": 45}
    ]},
    {"molecule": "B6", "values": [
      {"measurement": "Inhibition of infection in the presence of dimeric knob (JO-1 = 100%)", "setting": "[4]", "result": "32.7 % (JO-1 = 100%)"},
      {"measurement": "Inhibition of attachment in the presence of dimeric knob (JO-1 = 100%)", "setting": "[5]", "result": "56.5 % (JO-1 = 100%)"}
    ]},
    {"molecule": "B7", "values": [
      {"measurement": "Inhibition of infection in the presence of dimeric knob (JO-1 = 100%)", "setting": "[4]", "result": "5.1 % (JO-1 = 100%)"},
      {"measurement": "Inhibition of attachment in the presence of dimeric knob (JO-1 = 100%)", "setting": "[5]", "result": "73.7 % (JO-1 = 100%)"}
    ]},
    {"molecule": "B8", "values": [
      {"measurement": "Inhibition of infection in the presence of dimeric knob (JO-1 = 100%)", "setting": "[4]", "result": "50.7 % (JO-1 = 100%)"},
      {"measurement": "Inhibition of attachment in the presence of dimeric knob (JO-1 = 100%)", "setting": "[5]", "result": "97.3 % (JO-1 = 100%)"}
    ]},
    {"molecule": "B9", "values": [
      {"measurement": "Inhibition of infection in the presence of dimeric knob (JO-1 = 100%)", "setting": "[4]", "result": "54 % (JO-1 = 100%)"},
      {"measurement": "Inhibition of attachment in the presence of dimeric knob (JO-1 = 100%)", "setting": "[5]", "result": "81 % (JO-1 = 100%)"}
    ]},
    {"molecule": "B10", "values": [
      {"measurement": "Inhibition of infection in the presence of dimeric knob (JO-1 = 100%)", "setting": "[4]", "result": "30.9 % (JO-1 = 100%)"},
      {"measurement": "Inhibition of attachment in the presence of dimeric knob (JO-1 = 100%)", "setting": "[5]", "result": "73.4 % (JO-1 = 100%)"}
    ]},
    {"molecule": "B11", "values": [
      {"measurement": "Inhibition of infection in the presence of dimeric knob (JO-1 = 100%)", "setting": "[4]", "result": "17.6 % (JO-1 = 100%)"},
      {"measurement": "Inhibition of attachment in the presence of dimeric knob (JO-1 = 100%)", "setting": "[5]", "result": "55.6 % (JO-1 = 100%)"}
    ]},
    {"molecule": "B12", "values": [
      {"measurement": "Inhibition of infection in the presence of dimeric knob (JO-1 = 100%)", "setting": "[4]", "result": "5.2 % (JO-1 = 100%)"},
      {"measurement": "Western blot Residual DSG2 binding (wtAd3 knob = 100%)", "setting": "[6]", "result": 7, "unit": "%"},
      {"measurement": "Inhibition of attachment in the presence of dimeric knob (JO-1 = 100%)", "setting": "[5]", "result": "23.5 % (JO-1 = 100%)"}
    ]},
    {"molecule": "B13", "values": [
      {"measurement": "Inhibition of infection in the presence of dimeric knob (JO-1 = 100%)", "setting": "[4]", "result": "1.5 % (JO-1 = 100%)"},
      {"measurement": "Western blot Residual DSG2 binding (wtAd3 knob = 100%)", "setting": "[6]", "result": 7, "unit": "%"},
      {"measurement": "Inhibition of attachment in the presence of dimeric knob (JO-1 = 100%)", "setting": "[5]", "result": "20.1 % (JO-1 = 100%)"}
    ]}
  ]
}
